Reference: the nanobody polyreactivity screen of Harvey et al. (2022)

Assay: yeast display, Sf9 membrane polyspecificity reagent, FACS + sequencing; frameworks hold sequencing errors
Outline: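 A nanobody's polyreactivity label depends on the gate it was sorted from. Yeast display cells were stained with 10% biotinylated, detergent-solubilized Sf9 membrane reagent for 1 hour at 4 °C, enriched on streptavidin microbeads and sorted by FACS. The low and high (top ~1%) gates were set on anti-HA fluorescence for expression and streptavidin fluorescence for reagent binding.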

| Sequence | polyreactivity (PSR sort gate) |
| --- | --- |
| QVQLVESGGGLVQAGGSLRLTCAASGRTFVNYAMGWYRQAPGKERELVAAISTSGGSTYYADSVKGRFTISRDNAKNTVYLQMNSLKPEDTAVYYCNKVRYLPDNLRQVTFDYWGQGTQVTVSS | low polyreactivity |
| QVQLVESGGGLVQAGGSLRLSCAASGRTFVIYDMGWYRQAHGKERELVAGITRSGGSTYADSVKGRFTISRDNAKNTVYLQMNSLKPEDTAVYYGARRKLYHKSPYDYWGQGTQVTVSS | low polyreactivity |
| QVQLVESGGGLVQAGGSLRLSCAASGRTFSAYAMGWYRQAPGKERELVAAISRSGGRTYYADSVKGRFTISRDNAKNTVYLEMNSLKPEDTAVYYCNARNLRDNQCTYDYWGQGTQVTVSS | high polyreactivity |
| QVQLVESGGGLVQAGGSLRLSCAASGLTFSRYAMGWYRQAPGKERELVAAITSIGGSTYYADSVKGRFTISRDNAKNTVYLQMNSLKPEDTAVYYCRAFFRRDYWGQGTQVNVSS | high polyreactivity |
| QVQLVESGGGLVQAGGSLRLSCAASGSIFNSNAMGWYRPAPGKEREFVATITQTGSSTYYADSVKGRFTISRDNAKNTVYLQMNSLKPEETAVYYCAVDWILYEYEDDFWYRYDYWGQGTQVTVSS | low polyreactivity |
| QVQLVESRGGLVQAGGSLRLSCAASGSTFVRNAMGWYRQAPGKERELVAAISRSGGRTYYADSVMGRFTISRDNAKNTVYLQMNSLKPDDTAVYYCAKKRSKAISFDYWGQGTQVTVSS | high polyreactivity |
| QVQLVESGGGLVQAGGSLRLSCAASGCTRWYAMGWYRQAPGKERELVAAINGRGVSTYYAVSVKGRFRISRDNAKHTVYLQMNSLKQADTAVYYCAAYAYYDRYRRYDYWGQGTQVTVST | low polyreactivity |
| QVQLVESGGGLVQAGGSLRLSCAASGRIFHWYAMGWYRQAPGKERELVATANTSYADSVKGRFTISRDNAKNTVYLQMNSLKPEDTALYYCATVGPRGRSLGDYWGQGTQVTVSS | low polyreactivity |
| QVQLVESGGGLVQAGGSLRLSCAASGITYGYYAMGWYRQAPGKERELVATITDGGGTKYADSVKGRFTISRDNAKNTVYLQMNSLKPEDTAVYYCAAGLRHVYATEYDYWGQGTQVTVSS | low polyreactivity |
| QFQLVESGGGLVQAGGSLRLSCAASGSIFGYYAMGWYRQAPGKESELVAAISASGGTTYYADSVKGRFTISRDYAKNTVYLQMNSLKPEDTAVYYCNKLYLKPGRYYYWGQGTQVTVSS | high polyreactivity |
| QVQLVESGGGLVQAGGSLRLSCAGSGRIFSENAMGWYRQAPGKERELVAAISVSGGSTYYADSVKGRFTISRDNAKNTVYLQMNSLKPEDTAVYYCAAEYLAYYSGYDYWGQGTQVTVSS | high polyreactivity |
| QVQLVESGGGLVQAGCSLRLSCAASGRIFSFYVMGWYRQAPGKERELVAAISLSGGSTYYADSVKGRFTISRDNAKNTVYLQMNSLKPEDTAVYYCNAVLYARLRDRWARYDYWGQGTQVTVSS | high polyreactivity |
| QDQLVESRGGLVQAGGSLSISCAASGFTFRYYAMGWYRQAPGKERELVAGISWRGGSTNYADSVKGRFTISRDNAKNTVYFQMNSLNPDDSEVYSCNAVSYSFPILRVRPTWYDYWGQGTQVTVSS | high polyreactivity |
| QVQLQESGGGLVQAGGSLRLSCAASGSIFLFYTMGCYRPAPVKEREFVAGITLGTTTYNADSVKGRFTISRDNVKNTVYLQMNSLNPVDSAVYYCAVAVGHYTEFWYWGQGTQVTMSS | high polyreactivity |
| QVQLVESGGGLVQAGRTLRLSCAASGFIFFDNAMGWYRQAPGKERELVAVISSSGTSTYYADAVKGRFTISRDNAKNTVYLQMNSLKPDDTAVYYCNATARTGVYLESDYWGQGTQVTVSS | low polyreactivity |
| QVQLVESGGGLVQAGGSLRLSCAASGSILKGYAMGWYRQAPGKERELVAAISGSGGSTHYADSVKGRFTISRDNAKNTVYLQMNSLKPEDTAVYYCAAAYKWTYYWGQGTQVTVSS | high polyreactivity |
| QVQLVESGGGLVQAGGSLRLSCAASGSTFGEYAMGWYRQAPGKERELVAAISWSGDTTYYADSVKGRFTISRDNAKNTVYLQMNSLKPEDTAVYYCAARDYDRVGEDYWGQGTQVTVSS | low polyreactivity |
| QVQLVESGGGLVQAGGSLRLSCAASGSTFGPYAMGWYRQAPGKERELVAGISYGGGTTFYADSVKGRFTISRDNAKNTVYLQMNSLKPEDTAVYYCAATYRPNRYLEGYWGQGTQVTVSS | high polyreactivity |
| QVQLVESGGGIVQAGGSLRLSCADSGRTFGYYGMGWYRQAPGKERELVASINFSSGSTFYADSVKGRFTISRDNAKNTVYLQMNSLKPEDTAVYYCAGRAKAVRTYAYNYWGQGTQVTVSS | low polyreactivity |
| QVQLVVSGGGLDQARGSLSLSCAASGRNFTSYAMGWYRQAPWKERELVAAISWSVGSTYYADSVKGRFTISRDNAKNTVYLQMNSLKPEDTSVYYCNAVYPSVYPVSTRYYWGQGTQVTVSS | high polyreactivity |
| QVQLVESGGGLVQAGGSLRLSCAASGFTFNRYAMGWYIEAPGKERELVASITTGGRTNYADSVKGRFTISRDNAKNTVYLQMNSLKPVDTAVYYCAADYCYFYRYYYWGQGTQVTVSS | high polyreactivity |
| QVQLVESGGGLVQAGGSLRLSCAASGLTLDKYAMGWYRQAPGKERELVAGINSRGGSTYADSVKGRFTISRDNAKNTVYLQMNSMKPEDTAVYYCAADGKVQGGYYWGQGTQVTVSS | high polyreactivity |

| Sequence | polyreactivity (PSR sort gate) |
| --- | --- |
| QVQLVESGGGLVQAGGSLRLSCASSGRTFPGNAMGWYRPAPGKERELVAAISWSGTRTYYADSVKGRFTISRDNAKNTVSLKMNSLKPEDTAVYSCNVVVKGAWDYYPYDYWGQGTQVTVSS | high polyreactivity |
| QVQLVESCGGLVQAGGSLRLSCAASGSIFGTNAMGWYRQAPGKERELVASITRGGSTNYADSVKGRFTISRDNAKNTVYLQMNSLTPEDTAVYYCNAQGHWRWWGYDYWGQGTQVTVSS | low polyreactivity |
| QVQLVESGGGLVQAGGSLRLSCAASGSIFGLYAMGWYRQAPGKERELVAAINQSGGSTSYADSVKGRFTISRDNAKNTVYLQMNSLKPEDNAVYYCNRVRLNTEGFDYWGQGTQVTVSS | low polyreactivity |
| QVQLVESGGGLVQAGGSLRLSCAASGRIFGGYALGWYRQAPGKERELVAAITRSGGSTYYADSVKGRFTISRDNAKNTVYVQMNSLKPEDTAVYYCAARNYYSWRYDYWGQGTQVTVSS | high polyreactivity |
| QDQLVDSGGGFVQAGGSLSLSCAASRRTFLYYAMGWYRQAPGKERELVAAIRRGSSTYYADSVKGRFTISRDNAKNNGFLQLISLIAADTAVYYCAAEFVNGPPYGAYDYWGQGTQVTVSS | high polyreactivity |
| QVQLVESGGGLVQAGGSLRLSCASSGSTFYFNAMGWYRQAPGKERELVAAITSSGGTTYYADSVKGRFTISRDNAKNTVYLQMNSLKPEDTAVFYCADWFSAYYSLYRHRGYWGHGTQVTVSS | low polyreactivity |
| QVQLVESGGGLVQAGGSLRLSCAASGFIFSSYAMGWYRQAPGKERELVARISLSGGSTFYADSVKGRFTISRDNAKNTVYLQMNSLKPEDTAVYYCAARDFSTHFSPMDYWGQGPQVTVSS | low polyreactivity |
| QVQLVESGGALVQAGGSLRLSCAASGSTIGDNAMGWYRQAPGKERELVASISWSGASTYYADSVKGRFTISRDNAKNTFYLPMKSLKPEETEVYYCAVYYSYFSHLYHLLFYYWGQGTQVTVSS | low polyreactivity |
| QDQLVESGGGLVQAGGSLRLSCAASGRIFTGNAMGWYRQAPGKERELVAAITKSGGSTYYADSVKGRFTISRDNAKNTVYLQMNSLKPEDTAVYYCAATRYLHYVYKYGYWGQGTQVTVSS | high polyreactivity |
| QVQLVESGGGLVQAGGSLRLSCAASGSTIRANAMGWYRQAPGKERELVAAITKNGGSTYYADSVKGRFTISRDNAKNTVYLQMNSLKPEDTAVYYCAARRSSRRPPYYYWGQGTQVTVSS | high polyreactivity |
| QVQLVESGGGLVQAGGSLRLSCAASGSISYEYAMGWYRPAPGKERELVASIDSDGAGTYYADSVKGRFTISRDNAKNTDYLQMNSLKPEDTAVYYCNAEWYYPYYYSRMDYWGQGTQVTVSS | low polyreactivity |
| QVQLVESWGGLVQAGGSLRLSCAASGRTSGNYAMGWYRQAPGKERELVAAIRYSGSSTFYADSVKGRFTISRDNAKNTVYLQMNSLKPEDTAVYYCARDIRRKGFRYDYWGQGTQVNVSS | high polyreactivity |
| QVQLVESGGGLFQAGGSLRLSSAASGSIFINNGMGWYRQAPGKESELVAAIYSGGSTYADSVKGRFTISRDNAKNTVYLQMNSLKPEDTAVYYCAVDVWLRGLYGYEYDYWGQGTQVTVSS | low polyreactivity |
| QGQLVESGGGLVQAGGRLRLSCAASGSTLWRYAMGWYRQAPRKERELVAGISRGGGSTYYADSVKGRFTISRDNAKNTVYLQMYSLKPEDTGVYYCATPVNQVRGAFDYWGQGTQVSVSS | low polyreactivity |
| QVQLVESAGGLVQAGGSLRLSCAASGSTLRAYAMGWYRQAPGKERELVAAISGSGDSTYYADSVKGRFTISRDNAKNTVYLQMNSLKPEDTAVYYCNKGLFSTGNIPYYLIVYLEYNYWGQGTQVTVSS | low polyreactivity |
| QVQLVESGGGIVQAGGSLRLSCAASGRTFYYAMGWYRQAPGKERELVAAITSSSSTYYADSVKGRFTISRDNAKNTVYLQMNSLKPEDTAVYYCNSADDPYGSPSYGYDYWGQGTQVTVSS | low polyreactivity |
| QVQLVESGGGLVQAGGSLRLSCAASGFILLQYVMGWYRQAPGKERELVAAITSGGSTYYADSVKGRFTISRDNAKYTVYLQMNSLKPEDTAVYYCSTDVADNTFYALYGYDYWGQGTQVTVSS | low polyreactivity |
| QVQLVQSGGGLVQAGGSLRLSCAASGGIFRTNPMGWYRQAPGQERALVATISRRGGSTYYADSVKGRFTISRDNAKNTVYFQMNSLKPEDTAVYYCAVEWYYTSNHIRFYRDNYWGQGTQVTVSS | high polyreactivity |
| QVQLVESGGGLVQAGGSLRLSSAASGFTFEENAMGWYRQAPGKERELVAAINWSGGNTYYADSVKGRFTISRDNAKNTVYLQMNSLKPEDTAVYYCAAVSTRYYYSVGPYYGYDYWVQGTQVTVSS | high polyreactivity |
| QVQLVESGGGLVQAGGSLRLSCAASGFIYTYAMGSYRQAPGKERELVAAIRWIGTRTYYADSVKGRFTISRDNAKNTVYLQMNSLKPEDTADYYCAARYYTYDGYSKYDYWGQGTQVNVSS | high polyreactivity |
| QVQLEESGGGLVQAGGSLRLSCAASGRTFGSNAMGWYRQAPGKERELVAAIRERGGSTYADSVKGRFTISRDNAKNTVYLQMNSLKPEDTAVYYCAADRSVIWSKNYDYWGQGTQVTVSS | low polyreactivity |
